In PMC8185548:

Molecular target: CD47 (mouse (endogenous in AB1 cells)) (UniProt Q61735)
Assay: proximity ligation; fixed MM (AB1) cells on coverslips, resting (PBS) or treated overnight with 400 nM BoxA or 10 nM CXCL12; primary antibodies to CD47 together with anti-CXCR4, anti-RAGE or anti-TLR4; Duolink probes; confocal imaging, signal per cell quantified

Sequence of UniProt Q61735 (Q61735 19-303): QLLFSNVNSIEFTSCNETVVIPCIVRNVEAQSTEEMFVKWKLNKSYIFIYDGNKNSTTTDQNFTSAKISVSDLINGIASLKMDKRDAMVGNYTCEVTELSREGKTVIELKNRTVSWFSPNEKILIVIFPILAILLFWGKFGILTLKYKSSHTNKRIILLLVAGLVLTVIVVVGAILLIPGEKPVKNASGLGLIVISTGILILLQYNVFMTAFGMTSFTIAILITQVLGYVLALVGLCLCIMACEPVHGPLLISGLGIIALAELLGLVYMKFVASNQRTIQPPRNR

Row | Substance | PLA signal, fold lower than that of CD47 and CXCR4 (fold lower than CD47/CXCR4)
1 | RAGE (from UniProt Q62151 23-402) (receptor) | 100
2 | TLR4 (from UniProt Q9QUK6 26-835) (receptor) | 100
